Broadly, the Kd is the concentration at which binding is half-saturated.

First the molecules themselves.
B1: MBP-PHAX103–196 (wild type) [human] / Human nuclear cap-binding complex (CBC): CBP80ΔNLS with CBP20 [human] (parent)
chain 1: SQKPPVAGGKKINNIWGAVLQEQNQDAVATELGILGMEGTIDRSRQSETYNYLLAKKLRKESQEHTKDLDKELDEYMHGGKKMGSKEEENGQGH
chain 2: KTSDANETEDHLESLICKVGEKSACSLESNLEGLAGVLEADLPNYKSKILRLLCTVARLLPEKLTIYTTLVGLLNARNYNFGGEFVEAMIRQLKESLKANNYNEAVYLVRFLSDLVNCHVIAAPSMVAMFENFVSVTQEEDVPQVRRDWYVYAFLSSLPWVGKELYEKKDAEMDRIFANTESYLKRRQKTHVPMLQVWTADKPHPQEEYLDCLWAQIQKLKKDRWQERHILRPYLAFDSILCEALQHNLPPFTPPPHTEDSVYPMPRVIFRMFDYTDDPEGPVMPGSHSVERFVIEENLHCIIKSHWKERKTCAAQLVSYPGKNKIPLNYHIVEVIFAELFQLPAPPHIDVMYTTLLIELCKLQPGSLPQVLAQATEMLYMRLDTMNTTCVDRFINWFSHHLSNFQFRWSWEDWSDCLSQDPESPKPKFVREVLEKCMRLSYHQRILDIVPPTFSALCPANPTCIYKYGDESSNSLPGHSVALCLAVAFKSKATNDEIFSILKDVPNPNQDDDDDEGFSFNPLKIEVFVQTLLHLAAKSFSHSFSALAKFHEVFKTLAESDEGKLHVLRVMFEVWRNHPQMIAVLVDKMIRTQIVDCAAVANWIFSSELSRDFTRLFVWEILHSTIRKMNKHVLKIQKELEEAKEKLARQHKRRSDDDDRSSDRKDGVLEEQIERLQEKVESAQSEQKNLFLVIFQRFIMILTEHLVRCETDGTSVLTPWYKNCIERLQQIFLQHHQIIQQYMVTLENLLFTAELDPHILAVFQQFCALQA
chain 3: MSGGLLKALRSDSYVELSQYRDQHFRGDNEEQEKLLKKSCTLYVGNLSFYTTEEQIYELFSKSGDIKKIIMGLDKMKKTACGFCFVEYYSRADAENAMRYINGTRLDDRIIRTDWDAGFKEGRQYGRGRSGGQVRDEYRQDYDAGRGGYGKLAQNQ

The variants in the first assay derive from B1. Kind of assay: ITC. The conditions noted are these: CBC pre-bound to the cap analog m7GpppG.
chain 1 R45E Y50E Y52E: the Kd turned out to be 1970 nM.

Staying with this assay, now noted: CBC pre-bound to the cap analog m7GpppG (row 'CBC-m7GpppG + PHAX103–196 (R147E, Y152E, Y154E)').
As for chain 1 R45E Y50E Y52E, the Kd was 1970 nM.

Source of the values: article PMC12350170, “Structural basis for the synergistic assembly of the snRNA export complex” (Nature Structural & Molecular Biology, 2025).
